# Data reported in patent publication US6787341B2, “Pharmacological targeting of bacterial DNA ligase for treatment and prevention of bacterial infections” (priority 2001, dated 2004).
# Legend:
# [1] = system: E. coli LigA; assay type: biochemical; details: specific activity by protein titration under steady-state conditions, normalized to wild-type ligase
# Description: (§1) FIG. 12A: Aliquots (5 μg) of wild-type (WT) E. coli ligase, N-terminal deletion mutants NΔ38 and NΔ78, and the full-length ligase proteins containing the indicated alanine mutations in domain Ia were analyzed by SDS-PAGE. A Coomassie blue-stained gel is shown. FIG. 12B: Ligase adenylation reaction mixtures (20 μl) containing 50 mM Tris-HCl (pH 7.5), 5 mM DTT, 5 mM MgCl2, 1 μM [α-^32P]NAD^+ and 8 pmol of WT ligase, NΔ38, NΔ78, or the indicated alanine mutants were incubated for 5 min at 37° C. The reaction products were resolved by SDS-PAGE and visualized by autoradiography. FIG. 12C: Nick joining reaction mixtures (20 μl) containing 50 mM Tris-HCl (pH 7.5), 10 mM (NH4)2SO4, 5 mM DTT, 5 mM MgCl2, 20 μM NAD^+, 1 pmol of ^32P-labeled nicked DNA, and increasing amounts of WT ligase or the indicated alanine mutants were incubated for 10 min at 22° C. The extents of ligation are plotted as a function of input protein.
# To further probe the role of domain Ia in NAD^+ recognition and nucleotidyl transfer, single alanine substitutions were introduced at six positions in the Ia domain of E. coli LigA. The six mutated Eco ligase residues—Glu10, Tyr22, His23, Asp32, Tyr35, and Asp36—correspond to the six residues that were subjected to alanine scanning mutagenesis in AmEPV ligase (FIG. 11). […] The conserved positions are denoted by shaded boxes in FIG. 11. The Eco ligase mutants E10A, Y22A, H23A, D32A, Y35A, and D36A were produced in E. coli and purified by Ni-agarose chromatography in parallel with wild-type ligase (FIG. 12A).
# To evaluate the roles of charge, hydrogen bonding potential, and steric constraints in the functions of the domain Ia residues implicated in the step 1 reaction with NAD^+, the effects of conservative substitutions were tested. Tyr22 and Tyr35 were replaced by Phe and Ser, His23 was changed to Tyr, and Asp32 and Asp36 were mutated to Glu and Asn. The recombinant mutant ligases were purified from soluble bacterial extracts by Ni-agarose chromatography (FIG. 15A). The specific activity of each mutant was determined under steady-state conditions by protein titration and normalized to the specific activity of wild-type ligase.
# [2] = system: E. coli LigA; assay type: biochemical; details: for rate of ligase adenylation (kinetic pattern): 1 μM [32P-AMP]NAD+, 15-120 s; for ligase adenylation (ligase-AMP formation) with NAD+: qualitative
# Description: as §1
# FIG. 15A: Aliquots (5 μg) of wild-type (WT) E. coli ligase and proteins containing the indicated mutations in domain Ia were analyzed by SDS-PAGE. The Coomassie blue-stained gel is shown. The positions and sizes (in kDa) of marker proteins are indicated on the left. FIG. 15B: Ligase adenylation reaction mixtures (20 μl) containing 50 mM Tris-HCl (pH 7.5), 5 mM DTT, 5 mM MgCl2, 1 μM [α-^32P]NAD^+ and 8 pmol of WT ligase or the indicated mutants were incubated for 5 min at 37° C. The reaction products were resolved by SDS-PAGE and visualized by autoradiography.
# Reaction mixtures containing (per 20 μl) 50 mM Tris-HCl (pH 7.5), 5 mM DTT, 5 mM MgCl2, 1 μM [^32P-AMP]NAD^+ and 8 pmol of ligase were incubated at 22° C. Aliquots (20 μl) were withdrawn at 15, 30, 60 and 120 s and then quenched immediately with SDS. The products were analyzed by SDS-PAGE. Formation of the ligase-[^32P]AMP adduct is plotted as a function of time.
# The first step in DNA ligation involves formation of a covalent enzyme-adenylate intermediate.
Molecule,Nick Joining Activity (% of WT) [1],rate of ligase adenylation (kinetic pattern) [2],ligase adenylation (ligase-AMP formation) with NAD+ [2]
"Y22F: E. coli LigA with Tyr22 replaced by Phe (protein, UniProt P15042 1-671, looked up, variant Y22F) DNA ligase: MESIEQQLTELRTTLRHHEYLFHVMDAPEIPDAEYDRLMRELRELETKHPELITPDSPTQRVGAAPLAAFSQIRHEVPMLSLDNVFDEESFLAFNKRVQDRLKNNEKVTWCCELKLDGLAVSILYENGVLVSAATRGDGTTGEDITSNVRTIRAIPLKLHGENIPARLEVRGEVFLPQAGFEKINEDARRTGGKVFANPRNAAAGSLRQLDPRITAKRPLTFFCYGVGVLEGGELPDTHLGRLLQFKKWGLPVSDRVTLCESAEEVLAFYHKVEEDRPTLGFDIDGVVIKVNSLAQQEQLGFVARAPRWAVAFKFPAQEQMTFVRDVEFQVGRTGAITPVARLEPVHVAGVLVSNATLHNADEIERLGLRIGDKVVIRRAGDVIPQVVNVVLSERPEDTREVVFPTHCPVCGSDVERVEGEAVARCTGGLICGAQRKESLKHFVSRRAMDVDGMGDKIIDQLVEKEYVHTPADLFKLTAGKLTGLERMGPKSAQNVVNALEKAKETTFARFLYALGIREVGEATAAGLAAYFGTLEALEAASIEELQKVPDVGIVVASHVHNFFAEESNRNVISELLAEGVHWPAPIVINAEEIDSPFAGKTVVLTGSLSQMSRDDAKARLVELGAKVAGSVSKKTDLVIAGEAAGSKLAKAQELGIEVIDEAEMLRLLGS",9 % of WT,reacted slowly,weakly active
"H23Y: E. coli LigA with His23 changed to Tyr (protein, UniProt P15042 1-671, looked up, variant H23Y) DNA ligase: MESIEQQLTELRTTLRHHEYLYYVMDAPEIPDAEYDRLMRELRELETKHPELITPDSPTQRVGAAPLAAFSQIRHEVPMLSLDNVFDEESFLAFNKRVQDRLKNNEKVTWCCELKLDGLAVSILYENGVLVSAATRGDGTTGEDITSNVRTIRAIPLKLHGENIPARLEVRGEVFLPQAGFEKINEDARRTGGKVFANPRNAAAGSLRQLDPRITAKRPLTFFCYGVGVLEGGELPDTHLGRLLQFKKWGLPVSDRVTLCESAEEVLAFYHKVEEDRPTLGFDIDGVVIKVNSLAQQEQLGFVARAPRWAVAFKFPAQEQMTFVRDVEFQVGRTGAITPVARLEPVHVAGVLVSNATLHNADEIERLGLRIGDKVVIRRAGDVIPQVVNVVLSERPEDTREVVFPTHCPVCGSDVERVEGEAVARCTGGLICGAQRKESLKHFVSRRAMDVDGMGDKIIDQLVEKEYVHTPADLFKLTAGKLTGLERMGPKSAQNVVNALEKAKETTFARFLYALGIREVGEATAAGLAAYFGTLEALEAASIEELQKVPDVGIVVASHVHNFFAEESNRNVISELLAEGVHWPAPIVINAEEIDSPFAGKTVVLTGSLSQMSRDDAKARLVELGAKVAGSVSKKTDLVIAGEAAGSKLAKAQELGIEVIDEAEMLRLLGS",88 % of WT,–,restored the yield of ligase-AMP adduct to the wild-type level
"Y22S: E. coli LigA with Tyr22 replaced by Ser (protein, UniProt P15042 1-671, looked up, variant Y22S) DNA ligase: MESIEQQLTELRTTLRHHEYLSHVMDAPEIPDAEYDRLMRELRELETKHPELITPDSPTQRVGAAPLAAFSQIRHEVPMLSLDNVFDEESFLAFNKRVQDRLKNNEKVTWCCELKLDGLAVSILYENGVLVSAATRGDGTTGEDITSNVRTIRAIPLKLHGENIPARLEVRGEVFLPQAGFEKINEDARRTGGKVFANPRNAAAGSLRQLDPRITAKRPLTFFCYGVGVLEGGELPDTHLGRLLQFKKWGLPVSDRVTLCESAEEVLAFYHKVEEDRPTLGFDIDGVVIKVNSLAQQEQLGFVARAPRWAVAFKFPAQEQMTFVRDVEFQVGRTGAITPVARLEPVHVAGVLVSNATLHNADEIERLGLRIGDKVVIRRAGDVIPQVVNVVLSERPEDTREVVFPTHCPVCGSDVERVEGEAVARCTGGLICGAQRKESLKHFVSRRAMDVDGMGDKIIDQLVEKEYVHTPADLFKLTAGKLTGLERMGPKSAQNVVNALEKAKETTFARFLYALGIREVGEATAAGLAAYFGTLEALEAASIEELQKVPDVGIVVASHVHNFFAEESNRNVISELLAEGVHWPAPIVINAEEIDSPFAGKTVVLTGSLSQMSRDDAKARLVELGAKVAGSVSKKTDLVIAGEAAGSKLAKAQELGIEVIDEAEMLRLLGS",0.2 % of WT,–,virtually inert
"Y35S: E. coli LigA with Tyr35 replaced by Ser (protein, UniProt P15042 1-671, looked up, variant Y35S) DNA ligase: MESIEQQLTELRTTLRHHEYLYHVMDAPEIPDAESDRLMRELRELETKHPELITPDSPTQRVGAAPLAAFSQIRHEVPMLSLDNVFDEESFLAFNKRVQDRLKNNEKVTWCCELKLDGLAVSILYENGVLVSAATRGDGTTGEDITSNVRTIRAIPLKLHGENIPARLEVRGEVFLPQAGFEKINEDARRTGGKVFANPRNAAAGSLRQLDPRITAKRPLTFFCYGVGVLEGGELPDTHLGRLLQFKKWGLPVSDRVTLCESAEEVLAFYHKVEEDRPTLGFDIDGVVIKVNSLAQQEQLGFVARAPRWAVAFKFPAQEQMTFVRDVEFQVGRTGAITPVARLEPVHVAGVLVSNATLHNADEIERLGLRIGDKVVIRRAGDVIPQVVNVVLSERPEDTREVVFPTHCPVCGSDVERVEGEAVARCTGGLICGAQRKESLKHFVSRRAMDVDGMGDKIIDQLVEKEYVHTPADLFKLTAGKLTGLERMGPKSAQNVVNALEKAKETTFARFLYALGIREVGEATAAGLAAYFGTLEALEAASIEELQKVPDVGIVVASHVHNFFAEESNRNVISELLAEGVHWPAPIVINAEEIDSPFAGKTVVLTGSLSQMSRDDAKARLVELGAKVAGSVSKKTDLVIAGEAAGSKLAKAQELGIEVIDEAEMLRLLGS",<0.1 % of WT,–,apparently unreactive
"Y35F: E. coli LigA with Tyr35 replaced by Phe (protein, UniProt P15042 1-671, looked up, variant Y35F) DNA ligase: MESIEQQLTELRTTLRHHEYLYHVMDAPEIPDAEFDRLMRELRELETKHPELITPDSPTQRVGAAPLAAFSQIRHEVPMLSLDNVFDEESFLAFNKRVQDRLKNNEKVTWCCELKLDGLAVSILYENGVLVSAATRGDGTTGEDITSNVRTIRAIPLKLHGENIPARLEVRGEVFLPQAGFEKINEDARRTGGKVFANPRNAAAGSLRQLDPRITAKRPLTFFCYGVGVLEGGELPDTHLGRLLQFKKWGLPVSDRVTLCESAEEVLAFYHKVEEDRPTLGFDIDGVVIKVNSLAQQEQLGFVARAPRWAVAFKFPAQEQMTFVRDVEFQVGRTGAITPVARLEPVHVAGVLVSNATLHNADEIERLGLRIGDKVVIRRAGDVIPQVVNVVLSERPEDTREVVFPTHCPVCGSDVERVEGEAVARCTGGLICGAQRKESLKHFVSRRAMDVDGMGDKIIDQLVEKEYVHTPADLFKLTAGKLTGLERMGPKSAQNVVNALEKAKETTFARFLYALGIREVGEATAAGLAAYFGTLEALEAASIEELQKVPDVGIVVASHVHNFFAEESNRNVISELLAEGVHWPAPIVINAEEIDSPFAGKTVVLTGSLSQMSRDDAKARLVELGAKVAGSVSKKTDLVIAGEAAGSKLAKAQELGIEVIDEAEMLRLLGS",23 % of WT,faster than Y35A,restored adenylation activity
